In article PMC7900552, “Iris domestica (iso)flavone 7- and 3′-O-Glycosyltransferases Can Be Induced by CuCl2” (Frontiers in Plant Science, 2021):
Numbering of substitutions follows the chain as printed.

B1: BcUGT7 (Iris domestica) (protein)
chain: MQLKESVVLFPSVGMGHLIPMVELAKLFIGHGFSVTIVVVEPPFDASTTSGPFISRVSSEYPSISFHRLPKVVPPATSKPPMIVIYETLRLACPHLLDFLKTIRSTAKVRALVLDMFCTSALDVADELGLPSYFFFASGASALAAYLLLPTLQSKLDGNFRDLGSSPVHFPGVPPVPASDLLTHVQERGESNDGIMLHFKRFPRAKGIMINTPEWLEKRAVEALANGECLPDRTMPPVYCIGPLVANGSNGGEGGGERHECLAWLDAQPEKSVVFLCFGSLGSFSGEQLKEMAIGLERSGQLFLWVVRSPPLKDDPAARPGARPEPDLEALLPEGFLERTKGKGMVVKSWAPQAAVLAHGSVGGFVSHCGWNSTLEAVSSGVPIIAWPLYAEQRMNKVFLVEEAKVAVAMEGYDKDIVSAEEVEKKIRWLMESKDGKAMKDRAVEAKEKAVAAWKEDGSSSLAWLELERALRMGA
notes: full ORF in pCold-TF, E. coli, His-tag + trigger factor fusion (~105 kDa; UGT ~53 kDa), Ni-NTA
B2: BcUGT1 (Iris domestica) (protein)
chain: MQLKESVVLFPSMGMGHIIPMVELAKLFIGHGFSVTIVDVEPPFDDSTTKGPFISRISSEYPSISFHRLPKVIPPATSRPPVFAFIETLRLACPHLLDFLKTIRSTTNVRALVLDMFCTPALDVADELGLPSYFFFSSSASILAAFLFFPILQDKLDGNFRDLGSSPIHFPGLPPVPASDLPTQMQERGEANDGIMFHFNSYPRATGIMINTLEWLEKRAIEVLANGECLPDRTMPPVYCIGPLVATGSNEGEGEGEGEKHECLAWLDAQPEKSVVFLCFGSMGSFSAEQVKEIAIGLERSGQRFLWVVRSPPLKDDPAARHGARPEPDLEALLPEGFLERTKEKGMVVKSWAPQAAVLAHGSVGGFVSHCGWNSTLEAVSSGVPIIAWPLYAEQRMNKVFLVEEAKLAVAMEGYNKDVVSAEEVEKKIRWLMESEDGKALKDRAVEAKEKAVAAWKQEGSSFLAWLELVRAVRKEA
notes: as for B1
B3: BcUGT2 (Iris domestica) (protein)
chain: B2 chain with E344G, N416D, A440V, L441M, W456R, K457M, E459D, F463S
B4: BcUGT5 (Iris domestica) (protein)
chain: MQLKESVVLFPSVGMGHLIPMVELAKLFIGHGFSVTIVVVEPPFDVSTTNHPFISRVSSEYPSISFHRLPKVIPPATSRPPVFAFIETLRLACPHLLDFLKTIRSTSNVRALVLDMFCTSALDVADELGLPSYFFFASGASTLAAFLLLPTLQSKLDGNFRDLGSSPVHFPGLPPVPASDLLIHVQERGEANDEIMFHFKRLPRAKGIMINTMEWLEKRAVEALANGECLPDRTMPPVYCIGPLVASGSNGGGGEGERHECLAWLDAQPEKSVVFLCFGSMGSFSAEQVKEMAVGLERSGQRFLWVVRSPPLKDDPAARPGARPEPDLEALLPEGFLERTKGKGMVVKSWAPQAAVLAHGSVGGFVSHCGWNSTLEAVSSGVPIIAWPLYAEQRMNKVFLVEEAKLAVAMEGYNKDVVSAEEVEKKIRWLMESEDGKALKDRAVEAKEKAVAAWKQEGSSSLAWLELVRAVRKEA
notes: as for B1
B5: BcUGT4 (Iris domestica) (protein)
chain: MQLKESVVLFPSVGMGHLIPMVELAKLFIGHGFSVTIVVVEPPFDVSTTNHPFISRVSSEYPSISFHRLPKVVPPATFRPPVIVLFETLRLACPQLLDFLKTIRSTSNVRALVLDMFCTSALDVADELGLPSYFFFASGASTLAAFLLFPTLQSKLDGNFRDLGSSPVHFPGLPPVPASDLPTQMQERGEANDGIMFHFKRLPRAKGIMINTPEWLEKRAVEALANGECLPDRTMPPVYCIGPLVASGSNGGGGGEGERHECLAWLDAQPKKSVVFLCFGSMGSFSAEQVKEMAVGLERSGQRFLWVVRSPPLKDDPAARPGARPEPDLEALLPEGFLERTKGKGMVVKSWAPQAAVLAHGSVGGFVSHCGWNSTLEAVSSGVPIIAWPLYAEQRMNKVFLVEEAKLAVAMEGYNKDVVSAEEVEKKIRWLMESEDGKALKDRAVEAKEKAVAAWKQEGSSFLAWLELVRAVRKEA
notes: as for B1
B6: BcUGT8 (Iris domestica) (protein)
chain: MEFTQSVILYPSLGMGHLIPTLELAKLFIDQGFSVTIVVIDSPPSDTSSTMDSFISRASSAYPSLSFHRLPKVAPPASKLPMVFLSETVRLANASLLDFLSSKKSTSDIRAVVLDMFCSASLDIVEELHLPSYFFFSSSASALAACLFFPTLQSQLAGSFRDLGSSPVHFPGLPPIPASDLPADVQVRGESYDAALAHFVRLPRADGIMINTFESLEKRAVRALVDGVCVPGRATPPVYCIGPLIADGSDGGERHECLAWLDAQPERSVVFLCFGSMGSFSTEQLKETAGGLERSGQRFLWVVRSPPSDPAYPFGPRAETELEALLPEGFLERTRERGMVLESWAPQAAVLAHRSVGGFVSHCGWNSTLEAVCSGVPMLGWPLYAEQRMNRVSLVEEAKVAVAMEGCHNGLVSADEVETKIRRLMESRALGERMAATKERAVAARTEGGESTLALLELVRALRKATPGTGA
notes: as for B1

The proteins below were run on COc1c(O)cc2occ(-c3ccc(O)cc3)c(=O)c2c1O (assay: purified protein). Settings: 2 mM UDP-glucose, 1 mM DTT, 50 mM PBS, pH 8.0, 30°C, 10 min.

**Q.** How did the Km turn out when B1 was run?
**A.** The Km was 1269 ± 9 µM.

**Q.** And the kcat?
**A.** The kcat was 15.86 ± 7.53 s⁻¹.

**Q.** And the kcat/Km?
**A.** The kcat/Km was 19800 M⁻¹ s⁻¹.

**Q.** How did the Km turn out when B2 was run?
**A.** The Km was 592 ± 49 µM.

**Q.** What about the kcat of the same protein?
**A.** The kcat was 57.29 ± 4.94 s⁻¹.

**Q.** And the kcat/Km?
**A.** The kcat/Km was 96800 M⁻¹ s⁻¹.

**Q.** Which results are given for B3?
**A.** Km: 392 ± 7 µM; kcat: 70.10 ± 9.86 s⁻¹; kcat/Km: 179000 M⁻¹ s⁻¹

**Q.** Which Km does the source give for B4 here?
**A.** The Km was 201 ± 15 µM.

**Q.** And the kcat?
**A.** The kcat was 116.03 ± 6.98 s⁻¹.

**Q.** And the kcat/Km?
**A.** The kcat/Km was 577000 M⁻¹ s⁻¹.

**Q.** How did the Km turn out when B5 was run?
**A.** Its Km is 115 ± 23 µM.

**Q.** And the kcat?
**A.** Its kcat is 155.18 ± 12.26 s⁻¹.

**Q.** What about the kcat/Km of the same protein?
**A.** Its kcat/Km is 1.35e+06 M⁻¹ s⁻¹.

Each protein was assayed on COc1cc(-c2coc3cc(O)c(OC)c(O)c3c2=O)cc(O)c1OC (assay: HPLC glucosylation assay). Settings: 2 mM UDP-glucose, 1 mM DTT, 50 mM PBS, pH 8.0, 30°C, 10 min.
Format: biochemical, Iris domestica

**Q.** B1 was tested. Which Km did it give?
**A.** Its Km is 894 ± 11 µM.

**Q.** What about the kcat of the same protein?
**A.** Its kcat is 17.73 ± 9.89 s⁻¹.

**Q.** What about the kcat/Km of the same protein?
**A.** Its kcat/Km is 19800 M⁻¹ s⁻¹.

**Q.** How did the Km turn out when B2 was run?
**A.** The Km was 210 ± 13 µM.

**Q.** And the kcat?
**A.** The kcat was 58.88 ± 3.24 s⁻¹.

**Q.** What about the kcat/Km of the same protein?
**A.** The kcat/Km was 280000 M⁻¹ s⁻¹.

**Q.** B4 was tested. Which Km did it give?
**A.** The Km was 121 ± 9 µM.

**Q.** And the kcat?
**A.** The kcat was 296.52 ± 11.8 s⁻¹.

**Q.** What about the kcat/Km of the same protein?
**A.** The kcat/Km was 2.45e+06 M⁻¹ s⁻¹.

**Q.** Which results are given for B6?
**A.** Km: 1423 ± 21 µM; kcat: 11.97 ± 1.31 s⁻¹; kcat/Km: 8410 M⁻¹ s⁻¹

**Q.** Which results are given for B5?
**A.** Km: 190 ± 7 µM; kcat: 57.23 ± 18.21 s⁻¹; kcat/Km: 301000 M⁻¹ s⁻¹
